Laboratory results: patent US20200239524A1 (University of Washington, published 2020)

Target: T1, Bcl2 (UniProt P10415 1-207, limits assumed, biotinylated)
T1 construct: Loaded on streptavidin biosensors; also called Biotinylated Bcl2; target
Assay: bio-layer interferometry (Octet), Bcl2 on tips, switch with nine residue toehold with and without cognate key
From the text: Specificity was designed for using different hydrogen bond networks at the cage-key interface. The latch helix was deleted from the original extended LOCKRₐ model and backbones for a new sixth helix were generated by parametrically sampling the radius, helical phase, and z-offset of the new latch/key helix. The resulting structures were scanned for new hydrogen bond networks spanning the interface between the new sixth helix and cage with all buried polar atoms participating in hydrogen bonds; the remaining interface around the networks was subjected to full sequence and sidechain rotamer optimization using Rosetta™ design. Five designs were selected based on packing quality, sequence dissimilarity, and lack of buried polar atoms not participating in hydrogen bonds. Truncations and toehold variants were assayed for cognate and off target key binding using the GFP pulldown assay from FIG. 1c. […] All bound keyₐ to some extent yet is unknown. The Bim sequence was threaded onto the latches of these three designs as it was for the original design, BimLOCKRₐ (FIG. 2). BimLOCKRb and BimLOCKR, show 22-fold and 8-fold activation, respectively, from their cognate keys given a nine residue toehold on the latch (FIG. 3a,b). BimLOCKRₐ, BimLOCKRb and BimLOCKRc are also orthogonal; each is activated only by its cognate key at concentrations up to 5 uM (FIG. 3c). […]

T1 sequence (P10415 1-207 limits assumed): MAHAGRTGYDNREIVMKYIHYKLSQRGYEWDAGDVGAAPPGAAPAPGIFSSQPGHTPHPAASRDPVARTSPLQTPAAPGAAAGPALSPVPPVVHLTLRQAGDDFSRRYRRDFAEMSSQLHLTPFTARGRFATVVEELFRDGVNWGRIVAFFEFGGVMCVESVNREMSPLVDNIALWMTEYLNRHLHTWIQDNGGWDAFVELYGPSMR

B1: BimLOCKRb (nine residue toehold) (designed binder)
chain: MGSSHHHHHHSSGLVPRGSHMSHAAVIKLSDLNIRLLDKLLQAVIKLTELNAELNRKLIEALQRLFDLNVALVHLAAELTDPKRIADEIKKVKDKSKEIVERAEEEIARAAAESKKILDEAEEEIARAAAESKKILDEGSGSGSDAVAELQALNLKLAELLLEAVAELQALNLKLAELLLEAIAKLQELNIKLVELLTKLTDPATIREAIRKVKEDSERIVAEAERLIAAAKAESERIIREAERLIAAAKAESERIIREGSGSNDPQVAQNQETFIELARDALRLVAENQEAFIEVARLTLRAAALAQEVAIKAVEAASEGGSGSGNEIWIAQELRRIGDEFNAYYAEHKEIHDKLRKKNKKAREDLKKKADE
fold activation of binding by the cognate key: 22 fold

B2: BimLOCKRc (nine residue toehold) (designed binder)
chain: MGSSHHHHHHSSGLVPRGSHMSLEAVLKLAELNLKLSDKLAEAVQKLAALLNKLLEKLSEALQRLFELNVALVTLAIELTDPKRIADEIKKVKDKSKEIVERAEEEIARAAAESKKILDEAEEEIARAAAESKKILDEGSGSGSDAVAELQALNLKLAELLLEAVAELQALNLKLAELLLEAIAKLQELNIKLVELLTKLTDPATIREAIRKVKEDSERIVAEAERLIAAAKAESERIIREAERLIAAAKAESERIIREGSGSNDPLVARLQELLIEHARELLRLVATSQEIFIELARAFLANAAQLQEAAIKAVEAASENGSGEIWIAQELRRIGDEFNAYYAQNQKLLKDHKRAQEKLNRELEELKKKHKK
notes: also called printed once as 'BimLOCKR,'
fold activation of binding by the cognate key: 8 fold
